Reference: paper PMC3325936

Columns and labels:
[1] = molecular target: GST:Anillin (608–940) (human) (UniProt Q9NQW6); assay: pull-down; purified MBP- or GST-tagged anillin fragments (200 nM) as bait; lysates of transfected HEK-293 cells; 50 mM Tris pH7.6, 150 mM NaCl, 5 mM MgCl2, 0.5% Triton X-100, 1 mM DTT, 4°C; western blot for Myc
[2] = molecular target: GST:Anillin (608–940) (human) (UniProt Q9NQW6); assay: pull-down; lysates of transfected HEK-293 cells diluted by 0.5-fold, 0.25-fold or 0.05-fold, pulled down with 200 nM GST-tagged AHD; western blot for Myc, % bound protein

UniProt Q9NQW6, sequence (Q9NQW6 645-977): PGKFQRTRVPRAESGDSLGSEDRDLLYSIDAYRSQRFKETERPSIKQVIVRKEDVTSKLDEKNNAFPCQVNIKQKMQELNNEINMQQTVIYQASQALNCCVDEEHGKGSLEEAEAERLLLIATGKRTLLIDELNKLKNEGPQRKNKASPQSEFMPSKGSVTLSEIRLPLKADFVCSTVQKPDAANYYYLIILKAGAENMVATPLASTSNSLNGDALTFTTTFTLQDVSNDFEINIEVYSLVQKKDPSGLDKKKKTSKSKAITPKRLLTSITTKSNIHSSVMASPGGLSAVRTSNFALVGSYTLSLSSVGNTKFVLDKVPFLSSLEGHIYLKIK

Substance | fold change of the amount pulled down against wild-type Ect2 (C-term) [1] | percent of protein bound at the lowest dilution [2]
Myc:Ect2 (421–883; D668G) (domain or fragment) | 0.5 fold lower | –
Myc:Ect2 (421–883) (domain or fragment) | – | 38%
